# Test results from IntAct's records for PubMed 24256567.
# B1: Tyrosine-protein kinase ZAP-70 (Homo sapiens), P43403 (parent)
# chain: MPDPAAHLPFFYGSISRAEAEEHLKLAGMADGLFLLRQCLRSLGGYVLSLVHDVRFHHFPIERQLNGTYAIAGGKAHCGPAELCEFYSRDPDGLPCNLRKPCNRPSGLEPQPGVFDCLRDAMVRDYVRQTWKLEGEALEQAIISQAPQVEKLIATTAHERMPWYHSSLTREEAERKLYSGAQTDGKFLLRPRKEQGTYALSLIYGKTVYHYLISQDKAGKYCIPEGTKFDTLWQLVEYLKLKADGLIYCLKEACPNSSASNASGAAAPTLPAHPSTLTHPQRRIDTLNSDGYTPEPARITSPDKPRPMPMDTSVYESPYSDPEELKDKKLFLKRDNLLIADIELGCGNFGSVRQGVYRMRKKQIDVAIKVLKQGTEKADTEEMMREAQIMHQLDNPYIVRLIGVCQAEALMLVMEMAGGGPLHKFLVGKREEIPVSNVAELLHQVSMGMKYLEEKNFVHRDLAARNVLLVNRHYAKISDFGLSKALGADDSYYTARSAGKWPLKWYAPECINFRKFSSRSDVWSYGVTMWEALSYGQKPYKKMKGPEVMAFIEQGKRMECPPECPPELYALMSDCWIYKWEDRPDFLTVEQRMRACYYSLASKVEGPPGSTQKAEAACA
# Variants of: B1
# Conditions: with ubs3b_mouse Ubash3b
row,effect of a mutation on the interaction,Variant
1,disrupting interaction,Y319F
